Laboratory results from IntAct's records for PubMed 21763699.

B1: Peripheral plasma membrane protein CASK (Homo sapiens), O14936 (parent)
chain: MADDDVLFEDVYELCEVIGKGPFSVVRRCINRETGQQFAVKIVDVAKFTSSPGLSTEDLKREASICHMLKHPHIVELLETYSSDGMLYMVFEFMDGADLCFEIVKRADAGFVYSEAVASHYMRQILEALRYCHDNNIIHRDVKPHCVLLASKENSAPVKLGGFGVAIQLGESGLVAGGRVGTPHFMAPEVVKREPYGKPVDVWGCGVILFILLSGCLPFYGTKERLFEGIIKGKYKMNPRQWSHISESAKDLVRRMLMLDPAERITVYEALNHPWLKERDRYAYKIHLPETVEQLRKFNARRKLKGAVLAAVSSHKFNSFYGDPPEELPDFSEDPTSSGLLAAERAVSQVLDSLEEIHALTDCSEKDLDFLHSVFQDQHLHTLLDLYDKINTKSSPQIRNPPSDAVQRAKEVLEEISCYPENNDAKELKRILTQPHFMALLQTHDVVAHEVYSDEALRVTPPPTSPYLNGDSPESANGDMDMENVTRVRLVQFQKNTDEPMGITLKMNELNHCIVARIMHGGMIHRQGTLHVGDEIREINGISVANQTVEQLQKMLREMRGSITFKIVPSYRTQSSSCERDSPSTSRQSPANGHSSTNNSVSDLPSTTQPKGRQIYVRAQFEYDPAKDDLIPCKEAGIRFRVGDIIQIISKDDHNWWQGKLENSKNGTAGLIPSPELQEWRVACIAMEKTKQEQQASCTWFGKKKKQYKDKYLAKHNAVFDQLDLVTYEEVVKLPAFKRKTLVLLGAHGVGRRHIKNTLITKHPDRFAYPIPHTTRPPKKDEENGKNYYFVSHDQMMQDISNNEYLEYGSHEDAMYGTKLETIRKIHEQGLIAILDVEPQALKVLRTAEFAPFVVFIAAPTITPGLNEDESLQRLQKESDILQRTYAHYFDLTIINNEIDETIRHLEEAVELVCTAPQWVPVSWVY
partner: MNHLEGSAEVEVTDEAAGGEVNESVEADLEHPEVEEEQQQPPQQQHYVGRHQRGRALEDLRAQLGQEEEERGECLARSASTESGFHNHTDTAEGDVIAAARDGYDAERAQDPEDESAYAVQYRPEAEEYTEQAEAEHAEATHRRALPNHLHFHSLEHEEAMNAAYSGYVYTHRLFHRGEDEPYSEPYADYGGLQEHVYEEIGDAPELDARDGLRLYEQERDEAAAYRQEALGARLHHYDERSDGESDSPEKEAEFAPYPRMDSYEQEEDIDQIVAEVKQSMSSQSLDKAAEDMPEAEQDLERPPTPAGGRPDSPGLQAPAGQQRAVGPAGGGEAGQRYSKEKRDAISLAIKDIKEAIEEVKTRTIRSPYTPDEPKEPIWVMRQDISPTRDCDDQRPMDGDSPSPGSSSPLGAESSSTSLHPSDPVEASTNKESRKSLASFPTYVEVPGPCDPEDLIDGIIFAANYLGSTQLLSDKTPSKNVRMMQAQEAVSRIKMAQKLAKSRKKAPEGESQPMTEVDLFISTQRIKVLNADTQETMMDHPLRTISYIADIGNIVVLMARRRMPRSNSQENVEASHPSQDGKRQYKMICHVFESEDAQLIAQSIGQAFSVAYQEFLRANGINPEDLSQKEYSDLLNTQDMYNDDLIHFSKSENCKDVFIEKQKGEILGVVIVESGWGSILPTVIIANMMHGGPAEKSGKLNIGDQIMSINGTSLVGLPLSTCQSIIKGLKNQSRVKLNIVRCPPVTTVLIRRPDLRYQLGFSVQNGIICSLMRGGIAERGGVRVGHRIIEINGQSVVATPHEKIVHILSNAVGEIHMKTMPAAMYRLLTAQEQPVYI
B2: Caskin-1 (Homo sapiens), Q8WXD9 (parent)
chain: MGKEQELVQAVKAEDVGTAQRLLQRPRPGKAKLLGSTKKINVNFQDPDGFSALHHAALNGNTELISLLLEAQAAVDIKDNKGMRPLHYAAWQGRKEPMKLVLKAGSAVNIPSDEGHIPLHLAAQHGHYDVSEMLLQHQSNPCMVDNSGKTPLDLACEFGRVGVVQLLLSSNMCAALLEPRPGDATDPNGTSPLHLAAKNGHIDIIRLLLQAGIDINRQTKSGTALHEAALCGKTEVVRLLLDSGINAHVRNTYSQTALDIVHQFTTSQASREIKQLLREASAALQVRATKDYCNNYDLTSLNVKAGDIITVLEQHPDGRWKGCIHDNRTGNDRVGYFPSSLGEAIVKRAGSRAGTEPSLPQGSSSSGPSAPPEEIWVLRKPFAGGDRSGSISGMAGGRGSGGHALHAGSEGVKLLATVLSQKSVSESGPGDSPAKPPEGSAGVARSQPPVAHAGQVYGEQPPKKLEPASEGKSSEAVSQWLTAFQLQLYAPNFISAGYDLPTISRMTPEDLTAIGVTKPGHRKKIAAEISGLSIPDWLPEHKPANLAVWLSMIGLAQYYKVLVDNGYENIDFITDITWEDLQEIGITKLGHQKKLMLAVRKLAELQKAEYAKYEGGPLRRKAPQSLEVMAIESPPPPEPTPADCQSPKMTTFQDSELSDELQAAMTGPAEVGPTTEKPSSHLPPTPRATTRQDSSLGGRARHMSSSQELLGDGPPGPSSPMSRSQEYLLDEGPAPGTPPREARPGRHGHSIKRASVPPVPGKPRQVLPPGTSHFTPPQTPTKTRPGSPQALGGPHGPAPATAKVKPTPQLLPPTERPMSPRSLPQSPTHRGFAYVLPQPVEGEVGPAAPGPAPPPVPTAVPTLCLPPEADAEPGRPKKRAHSLNRYAASDSEPERDELLVPAAAGPYATVQRRVGRSHSVRAPAGADKNVNRSQSFAVRPRKKGPPPPPPKRSSSALASANLADEPVPDAEPEDGLLGVRAQCRRASDLAGSVDTGSAGSVKSIAAMLELSSIGGGGRAARRPPEGHPTPRPASPEPGRVATVLASVKHKEAIGPGGEVVNRRRTLSGPVTGLLATARRGPGESADPGPFVEDGTGRQRPRGPSKGEAGVEGPPLAKVEASATLKRRIRAKQNQQENVKFILTESDTVKRRPKAKEREAGPEPPPPLSVYHNGTGTVRRRPASEQAGPPELPPPPPPAEPPPTDLAHLPPLPPPEGEARKPAKPPVSPKPVLTQPVPKLQGSPTPTSKKVPLPGPGSPEVKRAHGTPPPVSPKPPPPPTAPKPVKAVAGLPSGSAGPSPAPSPARQPPAALAKPPGTPPSLGASPAKPPSPGAPALHVPAKPPRAAAAAAAAAAAPPAPPEGASPGDSARQKLEETSACLAAALQAVEEKIRQEDAQGPRDSAAEKSTGSILDDIGSMFDDLADQLDAMLE
B3: Peripheral plasma membrane protein CASK (Homo sapiens), O14936 (parent)
chain: B1 chain

Variants of: B1
Conditions: with apba1_human APBA1, Q02410

Row | Variant | effect of a mutation on the interaction
1 | V117Q | disrupting interaction
2 | V117D | disrupting interaction

Variants of: B2
Conditions: with cskp_human CASK

Row | Variant | effect of a mutation on the interaction
3 | L378A;R379A;K380A | disrupting interaction
4 | I375A;W376A;V377A | disrupting interaction

Variants of: B2
Conditions: with cskp_human CASK, O14936

Row | Variant | effect of a mutation on the interaction
5 | W376A | disrupting interaction
6 | I375A | disrupting interaction
7 | R379A | decreasing interaction
8 | V377A | decreasing interaction

Variants of: B3
Conditions: with tiam1_human TIAM1, Q13009
Sequence of tiam1_human TIAM1, Q13009 (Q13009 whole entry): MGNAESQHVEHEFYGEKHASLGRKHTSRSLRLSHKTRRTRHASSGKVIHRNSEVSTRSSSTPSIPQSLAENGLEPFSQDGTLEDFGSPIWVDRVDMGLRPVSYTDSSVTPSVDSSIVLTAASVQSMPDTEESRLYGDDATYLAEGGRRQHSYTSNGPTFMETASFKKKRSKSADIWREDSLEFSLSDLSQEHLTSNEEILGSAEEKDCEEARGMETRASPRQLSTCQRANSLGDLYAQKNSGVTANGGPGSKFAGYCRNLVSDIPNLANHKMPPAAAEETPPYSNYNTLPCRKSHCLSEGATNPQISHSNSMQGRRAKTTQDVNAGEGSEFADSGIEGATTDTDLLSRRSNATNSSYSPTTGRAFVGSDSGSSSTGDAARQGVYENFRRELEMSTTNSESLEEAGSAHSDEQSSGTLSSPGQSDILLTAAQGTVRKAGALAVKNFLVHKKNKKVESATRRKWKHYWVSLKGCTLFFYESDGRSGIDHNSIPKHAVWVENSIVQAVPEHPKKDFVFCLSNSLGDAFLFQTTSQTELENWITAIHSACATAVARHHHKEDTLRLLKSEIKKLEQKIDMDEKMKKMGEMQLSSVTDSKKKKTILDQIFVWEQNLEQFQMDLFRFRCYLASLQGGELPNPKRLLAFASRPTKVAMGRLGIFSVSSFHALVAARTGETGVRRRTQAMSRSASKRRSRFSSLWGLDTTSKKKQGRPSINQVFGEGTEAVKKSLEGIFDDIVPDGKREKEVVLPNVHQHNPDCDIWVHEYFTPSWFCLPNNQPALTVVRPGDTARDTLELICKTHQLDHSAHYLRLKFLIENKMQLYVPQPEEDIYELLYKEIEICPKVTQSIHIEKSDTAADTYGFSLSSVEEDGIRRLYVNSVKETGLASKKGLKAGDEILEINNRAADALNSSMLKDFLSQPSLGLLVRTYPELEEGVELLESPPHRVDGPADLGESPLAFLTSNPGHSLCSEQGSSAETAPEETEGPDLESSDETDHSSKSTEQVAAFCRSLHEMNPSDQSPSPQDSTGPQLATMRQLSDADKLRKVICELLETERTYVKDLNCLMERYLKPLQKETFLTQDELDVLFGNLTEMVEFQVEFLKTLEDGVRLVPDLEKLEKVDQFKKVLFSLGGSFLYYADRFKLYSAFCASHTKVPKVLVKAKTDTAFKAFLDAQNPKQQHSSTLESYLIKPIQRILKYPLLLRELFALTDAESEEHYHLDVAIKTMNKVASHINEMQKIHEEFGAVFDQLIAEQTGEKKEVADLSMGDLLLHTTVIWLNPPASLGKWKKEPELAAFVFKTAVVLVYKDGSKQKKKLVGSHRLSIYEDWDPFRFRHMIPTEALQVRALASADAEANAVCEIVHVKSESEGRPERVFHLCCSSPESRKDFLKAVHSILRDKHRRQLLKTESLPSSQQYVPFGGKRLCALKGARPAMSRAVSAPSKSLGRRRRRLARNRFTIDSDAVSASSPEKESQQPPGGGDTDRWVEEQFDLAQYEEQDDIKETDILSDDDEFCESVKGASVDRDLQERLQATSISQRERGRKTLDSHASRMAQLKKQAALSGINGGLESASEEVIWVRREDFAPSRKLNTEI

Row | Variant | effect of a mutation on the interaction
9 | V117Q | disrupting interaction
10 | V117D | disrupting interaction

Variants of: B3
Conditions: with cski1_human CASKIN1, Q8WXD9

Row | Variant | effect of a mutation on the interaction
11 | V117Q | disrupting interaction
12 | V117D | disrupting interaction
